The record followed here is patent US20200237923A1.

The test concerns the target TNFR1 on L929 cells (UniProt P25118). Briefly: cell-based or functional assay.
Sequence of UniProt P25118 (P25118 30-454 limits assumed): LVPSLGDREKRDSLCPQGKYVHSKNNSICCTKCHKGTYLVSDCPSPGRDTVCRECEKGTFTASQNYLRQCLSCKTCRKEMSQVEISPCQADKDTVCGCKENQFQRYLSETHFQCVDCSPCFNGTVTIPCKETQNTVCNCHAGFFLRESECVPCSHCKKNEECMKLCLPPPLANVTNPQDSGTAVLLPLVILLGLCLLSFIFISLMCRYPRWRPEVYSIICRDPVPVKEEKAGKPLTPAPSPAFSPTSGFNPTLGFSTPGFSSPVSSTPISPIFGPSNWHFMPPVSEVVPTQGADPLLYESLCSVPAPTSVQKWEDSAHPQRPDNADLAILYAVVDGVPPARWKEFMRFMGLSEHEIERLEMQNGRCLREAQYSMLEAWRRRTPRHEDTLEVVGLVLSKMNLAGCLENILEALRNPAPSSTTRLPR
In the case of “citraconylated scTNF-α (lysine side chains globally blocked with citraconic anhydride) (ligand)”, the EC50 of cytotoxic activity against L929 cells is 0.0076 ng/mL.
Still for that read-out and setting: for “PRINT PEG5K scTNF-α (N-terminally mono-PEGylated with PEG-5000) (ligand)” the value was 0.00058 ng/mL.
Regarding “randomly PEGylated scTNF-α (direct conjugation with PEG NHS ester) (ligand)”, the EC50 of cytotoxic activity against L929 cells was found to be 0.0046 ng/mL and the loss of activity against unmodified scTNF-α (L929 cytotoxicity) was determined as 10 fold.
Regarding “unmodified single-chain TNF-α (scTNF-α), His tag cleaved (ligand)”, the EC50 of cytotoxic activity against L929 cells came to 0.00035 ng/mL.
Consider “PRINT PEG20K scTNF-α (N-terminally PEGylated with PEG-20000) (ligand)”, for which the EC50 of cytotoxic activity against L929 cells came to 0.00062 ng/mL.
